Measured values: article PMC7729563, “Phospho-Mutant Activity Assays Provide Evidence for the Negative Regulation of Transcriptional Regulator PRE1 by Phosphorylation” (International Journal of Molecular Sciences, 2020)

B1: AD-PRE1 (PACLOBUTRAZOL-RESISTANT-1 fused to GAL4AD) [Arabidopsis thaliana] / BD-IBH1 (ILI1 BINDING bHLH PROTEIN1 fused to GAL4BD) [Arabidopsis thaliana] (parent complex)
chain 1: MSNRRSRQSSSAPRISDNQMIDLVSKLRQILPEIGQRRRSDKASASKVLQETCNYIRNLNREVDNLSERLSQLLESVDEDSPEAAVIRSLLM
chain 2: MASADKLINTDVPEKDVFAFHFLQSLSNLRKQNPFDTPDQKNYRVRKIKKAAYVSMARAAGGSSRLWSRALLRRADKDDNKIVRFSRRKWKISSKRRRSNQRAPVVEEAAERLRNLVPGGGGMETSKLMEETAHYIKCLSMQVKVMQCLVDGLSPK

Variants of: B1
Test: pull-down, band quantification normalized to input; parent: 0.32; read off a plot

| response [Pull-down/Input] | Variant |
| --- | --- |
| ~0.23 | chain 1 S67A |
| ~0.13 | chain 1 S67E |

Variants of: B1
Test: yeast two-hybrid, quantitative β-galactosidase assay; parent: 3.9; read off a plot

| response | Variant |
| --- | --- |
| ~3.6 β-gal units | chain 1 S67A |
| ~2.3 β-gal units | chain 1 S67E |

Variants of: B1
Test: Ratiometric-Bimolecular Fluorescence Complementation (rBiFC) in tobacco; n = 50 images; parent: 0.42; read off a plot

| response [YFP/RFP] | Variant |
| --- | --- |
| ~0.16 | chain 1 S67E |
